The target of series [1] is p53as (alternatively spliced p53) (Mus musculus) (UniProt P02340). The series can be described thus: cell_activity.
The target of another series is p53 (wild type) (UniProt P02340). In words: cell_activity.
Where [2] appears, read: CAT reporter, human Saos-2 cells.
The mark [3] stands for this setting: luciferase reporter, mouse (10)1 cells.

In the case of “PG13 CAT reporter, 13 repeats of p53-binding site”, the activity in series [1] (setting [2]) is 9 fold; in the series with p53 (wild type) (setting [2]), 14 fold.
In the case of WAF-1 promoter (WWP-1 luciferase), the activity is 14 fold in series [1] (setting [3]) and 15 fold with p53 (wild type) (setting [3]).

The values above are taken from patent publication US5726024.
